The results in this text go back to patent publication US20250313644A1 (FUTUREGEN BIOPHARMACEUTICAL BEIJING, published 2025).

Assay [1] deals with T1, LIGHT (UniProt O43557 74-240, limits assumed). The experiment in a line: ELISA, coated LIGHT. As to the method:
(§1) In this experiment, ELISA was used to assess the binding ability of monoclonal antibodies to TL1A homologous molecules. Representative members of the TNF ligand superfamily, TNFα, LT-α, LIGHT and FASL, were selected for binding testing. 1 μg/mL of TNFα, LT-α, LIGHT or FASL was coated in a microplate with a carbonate buffer solution at pH=9.6, 100 μL per well, and the microplate was incubated at 4° C. overnight. The microplate was then washed 5 times with PBST, blocked with 300 μL/well of PBS containing 1% BSA, and was incubated at room temperature for 1 hour. After washing 5 times with PBST, about 100 μL each of the M701 monoclonal antibodies and the control antibodies were added to each well, and were incubated at room temperature for 1 hour. After washing 5 times with PBST, 100 μL of HRP-anti-human Fc (Sino Biological) was added to each well, and was incubated at room temperature for 1 hour. After washing 5 times with PBST, 100 μL of colorimetric substrate TMB was added to each well, and color was developed at room temperature for 10 minutes, followed by addition of 1M sulfuric acid to terminate the reaction. OD450 nm was recorded on a microplate reader.
Background: An ELISA detects its analyte on a solid surface through an enzyme-linked reagent.

In assay [2] the target is T1, LIGHT. As to the kind of experiment: ELISA, coated LIGHT, Ab 0.391 nM. As to the method: as §1
In assay [3] the target is T1, LIGHT. As to the kind of experiment: ELISA, coated LIGHT, Ab 0.000 nM (blank). As to the method: as §1
Assay [4] concerns the target T2, human TL1A (HuTL1A) (human, UniProt O95150 57-251, limits assumed, biotin-labelled in some assays (site not stated)).
T2 construct: Expressed in EXPI-293 cells and purified by Ni-NTA (His-tag); Described as a trimeric antigen; also called TL1A antigen; WT
T2 sequence: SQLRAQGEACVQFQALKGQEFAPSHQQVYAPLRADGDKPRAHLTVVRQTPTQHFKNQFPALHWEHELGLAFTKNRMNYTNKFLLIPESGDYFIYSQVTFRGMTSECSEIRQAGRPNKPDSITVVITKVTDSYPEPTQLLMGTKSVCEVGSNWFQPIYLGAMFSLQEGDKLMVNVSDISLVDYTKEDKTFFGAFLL
The experiment in a line: ELISA: biotin-HuTL1A on streptavidin plate, antibody diluted at pH 7.4, HRP-anti-human Fc, OD450. On the procedure:
Corresponding antibodies were added to specific wells, and the antibodies were diluted with sodium dihydrogen phosphate-citrate buffer at pH 7.4, pH 6.0, pH 5.8, or pH 5.6. Binding assay was carried out at room temperature for 30 minutes. After the incubation, the excess antibodies were removed and the wells were washed by PBST. HRP-anti-Human Fc (Sino Biological) was then added into each well and incubated for 30 minutes to detect the bound antibody. The substrate TMB was finally added to develop color for 5-10 minutes. The color development reaction was terminated with 1M sulfuric acid. OD450 nm was recorded on a microplate reader, and the data were processed and fitted by 4 parameter logistic regression.

In assay [5] the target is T3, FASL (UniProt P48023 134-281, limits assumed).
T3 sequence (looked up): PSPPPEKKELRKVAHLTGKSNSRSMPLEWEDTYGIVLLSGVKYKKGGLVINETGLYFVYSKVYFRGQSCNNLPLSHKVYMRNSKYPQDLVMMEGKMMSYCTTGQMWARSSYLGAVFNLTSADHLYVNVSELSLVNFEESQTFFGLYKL
The experiment in a line: ELISA, coated FASL, Ab 0.391 nM. As to the method: as §1

Assay [6] deals with T4, TNFα (UniProt P01375 77-233). The experiment in a line: ELISA, coated TNF-α, Ab 25 nM. As to the method: as §1
T4 sequence (P01375 77-233 limits assumed): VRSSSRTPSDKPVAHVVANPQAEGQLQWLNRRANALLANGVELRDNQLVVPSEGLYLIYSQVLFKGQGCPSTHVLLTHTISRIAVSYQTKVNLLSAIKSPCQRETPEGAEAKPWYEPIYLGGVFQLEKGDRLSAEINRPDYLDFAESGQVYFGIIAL
In assay [7] the target is T3, FASL. As to the kind of experiment: ELISA, coated FASL, Ab 0.000 nM (blank). As to the method:
as §1

The target in assay [8] is T5, LT-α (UniProt P01374 35-205).
T5 sequence (looked up): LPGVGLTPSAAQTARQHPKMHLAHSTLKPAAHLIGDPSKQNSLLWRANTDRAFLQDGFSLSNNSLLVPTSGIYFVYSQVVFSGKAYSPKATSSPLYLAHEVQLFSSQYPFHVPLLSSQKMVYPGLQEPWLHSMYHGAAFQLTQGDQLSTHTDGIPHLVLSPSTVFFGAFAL
As to the kind of experiment: ELISA, coated LT-α. As to the method:
as §1

Assay [9] addresses T3, FASL. As to the kind of experiment: ELISA, coated FASL, Ab 1.563 nM. As to the method:
as §1

Assay [10] concerns the target T5, LT-α. As to the kind of experiment: ELISA, coated LT-α, Ab 0.000 nM (blank). As to the method: as §1
Assay [11] has as its target T1, LIGHT. The experiment in a line: ELISA, coated LIGHT, Ab 100 nM. On the procedure: as §1
Assay [12] addresses T2, human TL1A (HuTL1A). The experiment in a line: DLS, antigen and antibody mixed in equal moles. As to the method: 60 μM antigen and antibody was mixed in equal moles, incubated at room temperature for 30 minutes, and then the molecular size was detected using UNCLE or SEC.
Assay [13] concerns the target T1, LIGHT. The experiment in a line: ELISA, coated LIGHT, Ab 1.563 nM. On the procedure: as §1
Assay [14] addresses T2, human TL1A (HuTL1A). As to the kind of experiment: cell-based or functional assay.
Assay [15] deals with T4, TNFα. As to the kind of experiment: ELISA, coated TNF-α, Ab 1.563 nM. On the procedure: as §1
Assay [16] addresses T1, LIGHT. The experiment in a line: ELISA, coated LIGHT, Ab 25 nM. On the procedure: as §1
The target of assay [17] is T5, LT-α. The experiment in a line: ELISA, coated LT-α, Ab 100 nM. On the procedure:
as §1

Assay [18] deals with T4, TNFα. As to the kind of experiment: ELISA, coated TNFα. On the procedure: as §1
Assay [19] deals with T5, LT-α. As to the kind of experiment: ELISA, coated LT-α, Ab 1.563 nM. On the procedure: as §1
Assay [20] has as its target T3, FASL. As to the kind of experiment: ELISA, coated FASL. As to the method:
as §1

T1 sequence (O43557 74-240 limits assumed): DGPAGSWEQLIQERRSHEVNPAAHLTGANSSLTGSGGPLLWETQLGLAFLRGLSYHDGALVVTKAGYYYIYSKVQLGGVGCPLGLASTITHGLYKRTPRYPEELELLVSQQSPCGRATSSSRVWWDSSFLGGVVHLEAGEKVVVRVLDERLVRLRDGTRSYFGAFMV

B1: M701-3966 (antibody, human IgG1, kappa, L234A L235A, V domains shown)
VH: ELQLQESGPGLVKPSETLSLTCAVSGVSFSDYHWAWIRQPPGKGLEWIGDINHRGHTNYNPSLKSRVTVSIDTSKNQFSLKLSSVTAADTAVYFCARDFPNFIFDYWGQGTLVTVSS
VL: DIQLTQSPGTLSLSPGERATLSCRASQSVSSYLAWYQQKPGQAPRLLIYGASKRATGIPDRFSGSGSGTDFTLTISRLEPEDFAVYYCQQYGDSPLTFGQGTKVEIKR
notes: Fc-engineered IgG1
The term EC50 (read off the curve) denotes the concentration giving half of the maximal effect. A higher EC50 (read off the curve) goes with a need for much substance. On to B1, for which the binding result with LIGHT [1], in the assay with LT-α [8], in the assay with TNFα [18] and in the assay with FASL [20] was “no binding (tested: 100 nM)” in each case. Moreover, the OD450 nm with LIGHT [2] came to 0.0558; with LIGHT [3] it was 0.06; with FASL [5] it was 0.0504; with TNFα [6] it was 0.0593; with FASL [7] it was 0.0692; with FASL [9], 0.0522. Moreover, the OD450 nm with LT-α [10] amounted to 0.0704; in the assay with LIGHT [11] it was 0.0876; with LIGHT [13], 0.0573; with TNFα [15], 0.0528; with LIGHT [16], 0.0674; with LT-α [17], 0.0709. The OD450 nm with LT-α [19] was determined as 0.0651. Further, the “EC50 (read off the curve)” value in the assay with human TL1A (HuTL1A) [4] was ~0.1 nM. In addition, in the assay with human TL1A (HuTL1A) [12], the “Ave Z-dia (nm) of the antigen-antibody complex” value was 18.6 nm. Also, the “IC50 (read off the curve); SEAP reporter in HEK293T/DR3-NFκB cells with soluble TL1A, OD655” value with human TL1A (HuTL1A) [14] was ~1 nM.

B2: M701-4007 (antibody, human IgG1, kappa, L234A L235A, V domains shown)
VH: ELQLQESGPGLVKPSETLSLTCAVSGVSFSDYHWAWIRQPPGKGLEWIGDINHRGHTNYNPSLKSRVTVSIDTSKNQFSLKLSSVTAADTAVYFCARDFPNFIFDFWGQGTLVTVSS
VL: DIQLTQSPGTLSLSPGERATLSCRASQSVSTYLAWYQQKPGQAPRLLIYGASKRATGIPDRFSGSGSGTDFTLTISRLEPEDFAVYYCQQYGDSPLTFGQGTKVEIKR
notes: Fc-engineered IgG1
For B2, the binding result in the assay with LIGHT [1], with LT-α [8], with TNFα [18] and in the assay with FASL [20] was “no binding (tested: 100 nM)” in each case. Besides, the OD450 nm with LIGHT [2] came out at 0.0534; with LIGHT [3], 0.0568; in the assay with FASL [5], 0.0504; with TNFα [6], 0.0665; with FASL [7], 0.0648; in the assay with FASL [9], 0.06. The OD450 nm with LT-α [10] is 0.0662; with LIGHT [11], 0.0853; in the assay with LIGHT [13] it was 0.0568; with TNFα [15], 0.0588; in the assay with LIGHT [16], 0.063; with LT-α [17], 0.0706. The OD450 nm with LT-α [19] came out at 0.0625. The “EC50 (read off the curve)” value with human TL1A (HuTL1A) [4] was ~0.1 nM. Moreover, the “Ave Z-dia (nm) of the antigen-antibody complex” value in the assay with human TL1A (HuTL1A) [12] is 18.7 nm. Besides, the “IC50 (read off the curve); SEAP reporter in HEK293T/DR3-NFκB cells with soluble TL1A, OD655” value with human TL1A (HuTL1A) [14] is ~1 nM.
